Data on one substance can be found in publication PMC3569735.

Assay [1] deals with V1–V2 bnAb PG9 (human). As to the kind of experiment: SPR.
Assay [2] deals with mAb CH59 (human). The assay is described as follows: SPR. On the technique in general: In SPR one partner is held on a chip, and binding of the other changes the refractive index at the surface.

As usually defined, the Kd is the free concentration of one partner at which half of the binding sites on the other are occupied at equilibrium, for simple one-to-one binding.

As to AE.A244 gp120Δ11 (natural protein), the Kd in assay [1] came to 42.1 nM; in assay [2], 2.2 nM.
